# Source: US20220235136A1, “METHODS AND COMPOSITIONS FOR TREATING A DISEASE OR DISORDER” (YALE UNIVERSITY, priority 2019, published 2022)
# What was measured:
# [1] = biological target: CD248 on transfected HEK293T cells; experiment: flow cytometry, HEK293T cells transfected with CD248 stained with IGFBP7-Ig; dashed = transfectant, solid = WT 293T; histograms overlie; the text tells this pair as not binding
# [2] = biological target: CLEC14A on transfected HEK293T cells; experiment: flow cytometry, HEK293T cells transfected with CLEC14A stained with IGFBP7-Ig; dashed = transfectant, solid = WT 293T; histograms nearly overlie; the text tells this pair as not binding
# Chain of CLEC14A on transfected HEK293T cells (Q86T13 22-490): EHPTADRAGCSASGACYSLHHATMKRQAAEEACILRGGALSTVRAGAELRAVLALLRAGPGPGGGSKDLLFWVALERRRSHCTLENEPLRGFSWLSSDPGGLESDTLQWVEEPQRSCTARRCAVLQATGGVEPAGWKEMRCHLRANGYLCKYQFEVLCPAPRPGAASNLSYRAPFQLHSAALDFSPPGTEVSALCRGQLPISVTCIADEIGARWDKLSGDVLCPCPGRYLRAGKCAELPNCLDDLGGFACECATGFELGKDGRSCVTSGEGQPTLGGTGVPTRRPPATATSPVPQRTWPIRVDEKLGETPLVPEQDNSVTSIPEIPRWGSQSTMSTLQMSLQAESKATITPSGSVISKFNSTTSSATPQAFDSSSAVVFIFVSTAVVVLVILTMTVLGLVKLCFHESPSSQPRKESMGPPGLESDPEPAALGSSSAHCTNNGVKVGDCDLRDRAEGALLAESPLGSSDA
# [3] = biological target: CD93 on cells in Example 20 (transfected HEK293T cells, FIG. 28A; CHO cells stably expressing CD93, FIG. 28B); species not stated; experiment: flow cytometry, CHO cells stably expressing CD93 stained with IGFBP7-Ig (dashed) or Control (solid) in the presence of MMRN2 (panel '+MMRN2', form of the MMRN2 not stated); bar chart of MFI beside it marked ns against 'None'
# Chain of CD93 on cells in Example 20 (transfected HEK293T cells, FIG. 28A; CHO cells stably expressing CD93, FIG. 28B); species not stated (Q9NPY3 22-652): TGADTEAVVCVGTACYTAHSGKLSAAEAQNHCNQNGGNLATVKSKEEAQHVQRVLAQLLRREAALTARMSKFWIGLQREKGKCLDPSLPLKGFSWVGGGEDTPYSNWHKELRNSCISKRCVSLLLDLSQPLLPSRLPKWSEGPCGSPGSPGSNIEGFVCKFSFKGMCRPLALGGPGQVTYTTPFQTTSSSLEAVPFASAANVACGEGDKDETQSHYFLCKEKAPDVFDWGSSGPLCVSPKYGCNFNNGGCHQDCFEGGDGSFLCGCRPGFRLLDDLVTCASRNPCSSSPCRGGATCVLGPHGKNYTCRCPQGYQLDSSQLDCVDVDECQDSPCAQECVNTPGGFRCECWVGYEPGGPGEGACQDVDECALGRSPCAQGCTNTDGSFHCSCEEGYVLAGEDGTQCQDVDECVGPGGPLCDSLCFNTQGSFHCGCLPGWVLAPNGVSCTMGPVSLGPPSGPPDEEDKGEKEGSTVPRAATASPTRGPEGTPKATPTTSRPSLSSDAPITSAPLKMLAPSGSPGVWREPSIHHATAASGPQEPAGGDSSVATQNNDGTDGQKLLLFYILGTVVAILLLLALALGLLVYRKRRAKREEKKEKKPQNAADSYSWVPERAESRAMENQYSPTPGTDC
# [4] = biological target: CD93 on cells in Example 20 (transfected HEK293T cells, FIG. 28A; CHO cells stably expressing CD93, FIG. 28B); species not stated; experiment: flow cytometry, CHO cells stably expressing CD93 stained with IGFBP7-Ig (dashed) or Control (solid), no competitor
# CD141 [5] = experiment: flow cytometry, HEK293T cells transfected with CD141 stained with IGFBP7-Ig; dashed = transfectant, solid = WT 293T; histograms overlie
# Chain of CD141 (P07204 19-575): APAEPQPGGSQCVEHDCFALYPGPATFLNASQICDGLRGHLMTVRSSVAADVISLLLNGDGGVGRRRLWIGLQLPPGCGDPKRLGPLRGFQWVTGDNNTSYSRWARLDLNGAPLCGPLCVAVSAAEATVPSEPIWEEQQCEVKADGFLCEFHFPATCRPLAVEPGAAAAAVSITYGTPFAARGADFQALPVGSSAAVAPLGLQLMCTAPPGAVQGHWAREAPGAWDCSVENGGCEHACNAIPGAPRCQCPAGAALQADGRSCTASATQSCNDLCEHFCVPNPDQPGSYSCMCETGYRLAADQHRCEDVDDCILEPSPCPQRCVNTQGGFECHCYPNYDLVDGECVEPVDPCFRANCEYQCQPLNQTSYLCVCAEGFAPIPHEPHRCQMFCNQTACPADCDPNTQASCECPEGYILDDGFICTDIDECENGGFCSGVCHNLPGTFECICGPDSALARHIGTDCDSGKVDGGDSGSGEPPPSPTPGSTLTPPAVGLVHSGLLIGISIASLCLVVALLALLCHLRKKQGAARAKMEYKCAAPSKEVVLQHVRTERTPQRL
# [6] = biological target: CD93 on cells in Example 20 (transfected HEK293T cells, FIG. 28A; CHO cells stably expressing CD93, FIG. 28B); species not stated; experiment: flow cytometry, HEK293T cells transfected with CD93 stained with IGFBP7-Ig; dashed = transfectant, solid = WT 293T
# [7] = biological target: CD93 on cells in Example 20 (transfected HEK293T cells, FIG. 28A; CHO cells stably expressing CD93, FIG. 28B); species not stated; experiment: flow cytometry, HEK293T cells transfected with CD93 stained with MMRN2-Ig; dashed = transfectant, solid = WT 293T
# [8] = biological target: CLEC14A on transfected HEK293T cells; experiment: flow cytometry, HEK293T cells transfected with CLEC14A stained with MMRN2-Ig; dashed = transfectant, solid = WT 293T
# [9] = biological target: CD93 on cells in Example 20 (transfected HEK293T cells, FIG. 28A; CHO cells stably expressing CD93, FIG. 28B); species not stated; experiment: flow cytometry, CHO cells stably expressing CD93 stained with MMRN2-Ig (dashed) or Control (solid), no competitor
# [10] = biological target: CD93 on cells in Example 20 (transfected HEK293T cells, FIG. 28A; CHO cells stably expressing CD93, FIG. 28B); species not stated; experiment: flow cytometry, CHO cells stably expressing CD93 stained with MMRN2-Ig (dashed) or Control (solid) in the presence of IGFBP7-His protein (panel '+IGFBP7'); bar chart of MFI beside it marked ns against 'None'
# [11] = biological target: CD248 on transfected HEK293T cells; experiment: flow cytometry, HEK293T cells transfected with CD248 stained with MMRN2-Ig; dashed = transfectant, solid = WT 293T
# CD141 [12] = experiment: flow cytometry, HEK293T cells transfected with CD141 stained with MMRN2-Ig; dashed = transfectant, solid = WT 293T; histograms nearly overlie
# Chain of IGFBP7-Ig (Example 20, FIG. 28A and 28E; species not stated) (Fc fusion) (Q16270 27-282): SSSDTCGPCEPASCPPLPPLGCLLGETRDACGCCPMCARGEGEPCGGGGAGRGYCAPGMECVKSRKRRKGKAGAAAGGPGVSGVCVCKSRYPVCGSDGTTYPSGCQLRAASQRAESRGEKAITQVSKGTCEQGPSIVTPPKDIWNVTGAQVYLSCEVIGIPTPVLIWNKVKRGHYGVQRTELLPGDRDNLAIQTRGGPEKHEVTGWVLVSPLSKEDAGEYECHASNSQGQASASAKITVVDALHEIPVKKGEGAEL
# Chain of CD248 on transfected HEK293T cells (Q9HCU0 18-757): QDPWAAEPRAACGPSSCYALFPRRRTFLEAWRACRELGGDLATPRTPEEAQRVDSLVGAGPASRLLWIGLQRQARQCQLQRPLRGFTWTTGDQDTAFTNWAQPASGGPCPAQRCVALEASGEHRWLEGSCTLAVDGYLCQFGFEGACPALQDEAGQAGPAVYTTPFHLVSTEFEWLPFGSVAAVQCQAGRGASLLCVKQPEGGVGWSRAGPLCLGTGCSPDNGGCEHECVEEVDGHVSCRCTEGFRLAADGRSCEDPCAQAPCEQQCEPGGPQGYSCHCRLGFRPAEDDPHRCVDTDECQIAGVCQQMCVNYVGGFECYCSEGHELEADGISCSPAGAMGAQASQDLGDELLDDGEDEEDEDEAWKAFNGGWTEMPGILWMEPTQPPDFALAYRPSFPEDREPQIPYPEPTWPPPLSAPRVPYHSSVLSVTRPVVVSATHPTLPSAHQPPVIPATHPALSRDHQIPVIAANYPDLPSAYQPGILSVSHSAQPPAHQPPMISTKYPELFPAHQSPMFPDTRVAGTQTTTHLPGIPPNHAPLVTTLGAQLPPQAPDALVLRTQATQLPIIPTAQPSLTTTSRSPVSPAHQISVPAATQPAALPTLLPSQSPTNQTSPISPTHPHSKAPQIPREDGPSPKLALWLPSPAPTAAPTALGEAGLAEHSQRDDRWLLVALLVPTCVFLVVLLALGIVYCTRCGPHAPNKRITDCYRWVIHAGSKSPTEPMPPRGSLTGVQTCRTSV
"number printed over the positive gate of the histogram (percent of cells, unit not given) [1]","number printed over the positive gate of the histogram (percent of cells, unit not given) [2]","number printed over the positive gate of the histogram (percent of cells, unit not given) [3]","number printed over the positive gate of the histogram (percent of cells, unit not given) [4]","number printed over the positive gate of the histogram (percent of cells, unit not given) (CD141 [5])","number printed over the positive gate of the histogram (percent of cells, unit not given) [6]","number printed over the positive gate of the histogram (percent of cells, unit not given) [7]","number printed over the positive gate of the histogram (percent of cells, unit not given) [8]","number printed over the positive gate of the histogram (percent of cells, unit not given) [9]","number printed over the positive gate of the histogram (percent of cells, unit not given) [10]","number printed over the positive gate of the histogram (percent of cells, unit not given) [11]","number printed over the positive gate of the histogram (percent of cells, unit not given) (CD141 [12])",Substance
3.07,5.45,67.2,67,2.42,28.2,–,–,–,–,–,–,"IGFBP7-Ig (Example 20, FIG. 28A and 28E; species not stated) (Fc fusion)"
–,–,–,–,–,–,52.6,25.6,94.6,93.8,13.3,2.36,MMRN2-Ig (Fc fusion)
